Biological target: His6-avi-MBP-tagged POLE2
Experiment: Single-point nHU-MS with recombinant His6-avi-MBP-POLE2 bait, Jurkat extract
Format: binding, human
Settings: for pKapp_sign: significant apparent affinity of endogenous prey protein for POLE2 bait, single-point nHU-MS, Figure S11
Text: So far, our study only focused on a few hand-picked NPF motifs and studied them as short synthetic peptides. However, many other proteins may be present in the proteome that could bind to POLE2 and their putative NPF motifs are embedded in their natural structures that can greatly affect their binding properties. To investigate interactions between POLE2 and intact, full length proteins proteome-wide, we used nHU-MS experiments with recombinant His6-avi-MBP-tagged POLE2 as bait and purified His6-avi-MBP as a control. Even though we are aware that this recombinant POLE2 may bind to NPF motifs with a somewhat altered affinity, we assumed that this would affect all NPF motif-mediated interactions equally, allowing an unbiased affinity ranking of all identified partners. Single point nHU measurements were performed at 26 μM POLE2 concentration and the recovered supernatant was measured by label free proteomic MS measurements (Fig. 3A, Supplementary Figs. 8A, 9, Supplementary Data 1).
Single-point nHU experiments with protein baits were carried out nearly identically with two key modifications. First, the resin saturation step was carried out by mixing 50 μl streptavidin resin with 0.5−1 ml 50 μM biotinylated protein solution and the mixture was incubated for 1.5 h at 4 °C with constant agitation. Second, instead of using estimated bait concentrations, we measured it experimentally. An extra aliquot of resin stock was prepared alongside the nHU samples that were identically processed that were used to eluate the immobilized proteins under harsh conditions, in order to experimentally quantify the Cbait by using densitometry of Coomassie stained SDS-PAGE that included a protein calibration series. For this, 50 μl bait-saturated resin aliquots were mixed with 200 μl 4x Laemmli Sample Buffer (120 mM Tris-HCl pH 7, 8% SDS, 100 mM DTT, 32% glycerol, 0.004% bromphenol blue, 1% β-mercaptoethanol), instead of cell extract. After 15 min incubation at 95 °C, these samples were analyzed by SDS-PAGE using protein calibration standard, made from recombinant MBP. Densitometry was carried out after Coomassie staining on raw Tif images by using Fiji ImageJ 1.53c and experimental bait concentration were determined by adjusting for molecular weight differences between MBP and MBP-POLE2 constructs.
Samples were digested overnight at 37 °C.

Molecule | Kd (from the depletion of one peptide, single quantification, read-out: dissociation constant) | depletion (one DONSON peptide, single quantification) | pKapp_sign
endogenous DONSON: endogenous DONSON protein in Jurkat extract (protein) MALSVPGYSPGFRKPPEVVRLRRKRARSRGAAASPPRELTEPAARRAALVAGLPLRPFPAAGGRGGGSGGGPAAARRNPFARLDNRPRVAAEPPDGPAREQPEAPVPFLDSNQENDLLWEEKFPERTTVTELPQTSHVSFSEPDIPSSKSTELPVDWSIKTRLLFTSSQPFTWADHLKAQEEAQGLVQHCRATEVTLPKSIQDPKLSSELRCTFQQSLIYWLHPALSWLPLFPRIGADRKMAGKTSPWSNDATLQHVLMSDWSVSFTSLYNLLKTKLCPYFYVCTYQFTVLFRAAGLAGSDLITALISPTTRGLREAMRNEGIEFSLPLIKESGHKKETASGTSLGYGEEQAISDEDEEESFSWLEEMGVQDKIKKPDILSIKLRKEKHEVQMDHRPESVVLVKGINTFTLLNFLINSKSLVATSGPQAGLPPTLLSPVAFRGATMQMLKARSVNVKTQALSGYRDQFSLEITGPIMPHSLHSLTMLLKSSQSGSFSAVLYPHEPTAVFNICLQMDKVLDMEVVHKELTNCGLHPNTLEQLSQIPLLGKSSLRNVVLRDYIYNWRS | 92 µM | approximately 22% | 
LMO4 (protein, UniProt P61968 1-165, looked up) LIM domain transcription …: MVNPGSSSQPPPVTAGSLSWKRCAGCGGKIADRFLLYAMDSYWHSRCLKCSCCQAQLGDIGTSCYTKSGMILCRNDYIRLFGNSGACSACGQSIPASELVMRAQGNVYHLKCFTCSTCRNRLVPGDRFHYINGSLFCEHDRPTALINGHLNSLQSNPLLPDQKVC |  |  | 4.815
FBXO3 (protein, UniProt Q9UK99 1-471, looked up) F-box only protein 3: MAAMETETAPLTLESLPTDPLLLILSFLDYRDLINCCYVSRRLSQLSSHDPLWRRHCKKYWLISEEEKTQKNQCWKSLFIDTYSDVGRYIDHYAAIKKAWDDLKKYLEPRCPRMVLSLKEGAREEDLDAVEAQIGCKLPDDYRCSYRIHNGQKLVVPGLLGSMALSNHYRSEDLLDVDTAAGGFQQRQGLKYCLPLTFCIHTGLSQYIAVEAAEGRNKNEVFYQCPDQMARNPAAIDMFIIGATFTDWFTSYVKNVVSGGFPIIRDQIFRYVHDPECVATTGDITVSVSTSFLPELSSVHPPHYFFTYRIRIEMSKDALPEKACQLDSRYWRITNAKGDVEEVQGPGVVGEFPIISPGRVYEYTSCTTFSTTSGYMEGYYTFHFLYFKDKIFNVAIPRFHMACPTFRVSIARLEMGPDEYEEMEEEEEEEEEEDEDDDSADMDESDEDDEEERRRRVFDVPIRRRRCSRLF |  |  | 4.421
PNMA2 (protein, UniProt Q9UL42 2-364, looked up) Paraneoplastic antigen Ma2: ALALLEDWCRIMSVDEQKSLMVTGIPADFEEAEIQEVLQETLKSLGRYRLLGKIFRKQENANAVLLELLEDTDVSAIPSEVQGKGGVWKVIFKTPNQDTEFLERLNLFLEKEGQTVSGMFRALGQEGVSPATVPCISPELLAHLLGQAMAHAPQPLLPMRYRKLRVFSGSAVPAPEEESFEVWLEQATEIVKEWPVTEAEKKRWLAESLRGPALDLMHIVQADNPSISVEECLEAFKQVFGSLESRRTAQVRYLKTYQEEGEKVSAYVLRLETLLRRAVEKRAIPRRIADQVRLEQVMAGATLNQMLWCRLRELKDQGPPPSFLELMKVIREEEEEEASFENESIEEPEERDGYGRWNHEGDD |  |  | 5.251
GLB1 (protein, UniProt P16278 29-677, looked up) Beta-galactosidase: QRMFEIDYSRDSFLKDGQPFRYISGSIHYSRVPRFYWKDRLLKMKMAGLNAIQTYVPWNFHEPWPGQYQFSEDHDVEYFLRLAHELGLLVILRPGPYICAEWEMGGLPAWLLEKESILLRSSDPDYLAAVDKWLGVLLPKMKPLLYQNGGPVITVQVENEYGSYFACDFDYLRFLQKRFRHHLGDDVVLFTTDGAHKTFLKCGALQGLYTTVDFGTGSNITDAFLSQRKCEPKGPLINSEFYTGWLDHWGQPHSTIKTEAVASSLYDILARGASVNLYMFIGGTNFAYWNGANSPYAAQPTSYDYDAPLSEAGDLTEKYFALRNIIQKFEKVPEGPIPPSTPKFAYGKVTLEKLKTVGAALDILCPSGPIKSLYPLTFIQVKQHYGFVLYRTTLPQDCSNPAPLSSPLNGVHDRAYVAVDGIPQGVLERNNVITLNITGKAGATLDLLVENMGRVNYGAYINDFKGLVSNLTLSSNILTDWTIFPLDTEDAVRSHLGGWGHRDSGHHDEAWAHNSSNYTLPAFYMGNFSIPSGIPDLPQDTFIQFPGWTKGQVWINGFNLGRYWPARGPQLTLFVPQHILMTSAPNTITVLELEWAPCSSDDPELCAVTFVDRPVIGSSVTYDHPSKPVEKRLMPPPPQKNKDSWLDHV |  |  | 4.2

Source: article PMC12808100, “The non-catalytic DNA polymerase ε subunit is an NPF motif recognition protein” (Nature Communications, 2025)
